For the experiment, the target named is B7 (cell surface glycoprotein, CD28-ligand B7) (Homo sapiens (Human)) (UniProt P33681).

From patent US5723127 come the findings set out here.

For the substance “CTLA-4Ig (chimeric recombinant soluble B7-ligand) (from UniProt P16410) (Fc fusion)”, the IFN-γ production in PBMC stimulated with IL-12 alone (RIA) was more than 5 fold.
